According to US20110300138A1 (published 2011):

Key:
[1] = molecular target: human TSHR (thyroid stimulating hormone receptor) expressed in transfected CHO cells (human) (UniProt P16473); assay: cell-based or functional assay
[2] = molecular target: human TSH receptor (full length, wild type) expressed in CHO cells (human) (UniProt P16473); assay: cell-based or functional assay
[3] = molecular target: TSHR260-alkaline phosphatase (TSHR260-AP) (human) (UniProt P05187); assay: TSHR260-AP bridge ELISA, full length TSHR on wells; 1 µg/mL, diluted in HBD
[4] = molecular target: TSHR260-alkaline phosphatase (TSHR260-AP) (human) (UniProt P05187); assay: TSHR260-AP bridge ELISA, full length TSHR on wells; 10 µg/mL, diluted in HBD
[5] = molecular target: TSHR260-alkaline phosphatase (TSHR260-AP) (human) (UniProt P05187); assay: TSHR260-AP bridge ELISA, full length TSHR on wells; 0.1 µg/mL, diluted in HBD
[6] = molecular target: TSHR260-alkaline phosphatase (TSHR260-AP) (human) (UniProt P05187); assay: TSHR260-AP bridge ELISA, full length TSHR on wells; 0.5 µg/mL, diluted in HBD
[7] = molecular target: TSHR260-alkaline phosphatase (TSHR260-AP) (human) (UniProt P05187); assay: TSHR260-AP bridge ELISA, full length TSHR on wells; 250 µg/mL, diluted in HBD
[8] = molecular target: TSHR260-alkaline phosphatase (TSHR260-AP) (human) (UniProt P05187); assay: TSHR260-AP bridge ELISA, full length TSHR on wells; 0.01 µg/mL, diluted in HBD
[9] = molecular target: TSHR260-alkaline phosphatase (TSHR260-AP) (human) (UniProt P05187); assay: TSHR260-AP bridge ELISA, full length TSHR on wells; 10 µg/mL, diluted in assay buffer
[10] = molecular target: TSHR260-alkaline phosphatase (TSHR260-AP) (human) (UniProt P05187); assay: TSHR260-AP bridge ELISA, full length TSHR on wells; 0.5 µg/mL, diluted in assay buffer
[11] = molecular target: TSHR260-alkaline phosphatase (TSHR260-AP) (human) (UniProt P05187); assay: TSHR260-AP bridge ELISA, full length TSHR on wells; 250 µg/mL, diluted in assay buffer
[12] = molecular target: TSHR260-alkaline phosphatase (TSHR260-AP) (human) (UniProt P05187); assay: TSHR260-AP bridge ELISA, full length TSHR on wells; 0.05 µg/mL, diluted in assay buffer
TSHR260-AP (human) [13] = assay: TSHR260-AP bridge ELISA (full length TSHR on wells, TSHR260-AP in solution); IgG 10 µg/mL diluted in HBD serum
TSHR260-AP (human) [14] = assay: TSHR260-AP bridge ELISA (full length TSHR on wells, TSHR260-AP in solution); IgG 0.1 µg/mL diluted in HBD serum
TSHR260-AP (human) [15] = assay: TSHR260-AP bridge ELISA (full length TSHR on wells, TSHR260-AP in solution); IgG 0.5 µg/mL diluted in HBD serum
TSHR260-AP (human) [16] = assay: TSHR260-AP bridge ELISA (full length TSHR on wells, TSHR260-AP in solution); IgG 100 µg/mL diluted in HBD serum
TSHR260-AP (human) [17] = assay: TSHR260-AP bridge ELISA (full length TSHR on wells, TSHR260-AP in solution); IgG 1 µg/mL diluted in assay buffer
TSHR260-AP (human) [18] = assay: TSHR260-AP bridge ELISA (full length TSHR on wells, TSHR260-AP in solution); IgG 0.005 µg/mL diluted in HBD serum
TSHR260-AP (human) [19] = assay: TSHR260-AP bridge ELISA (full length TSHR on wells, TSHR260-AP in solution); IgG 10 µg/mL diluted in assay buffer
TSHR260-AP (human) [20] = assay: TSHR260-AP bridge ELISA (full length TSHR on wells, TSHR260-AP in solution); IgG 250 µg/mL diluted in assay buffer
TSHR260-AP (human) [21] = assay: TSHR260-AP bridge ELISA (full length TSHR on wells, TSHR260-AP in solution); IgG 0.005 µg/mL diluted in assay buffer

M22 IgG (antibody), sequence (VH): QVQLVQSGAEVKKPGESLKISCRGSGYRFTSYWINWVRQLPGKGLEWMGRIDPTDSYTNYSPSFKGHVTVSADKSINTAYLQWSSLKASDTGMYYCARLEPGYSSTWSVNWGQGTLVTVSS
M22 IgG (antibody), sequence (V domain): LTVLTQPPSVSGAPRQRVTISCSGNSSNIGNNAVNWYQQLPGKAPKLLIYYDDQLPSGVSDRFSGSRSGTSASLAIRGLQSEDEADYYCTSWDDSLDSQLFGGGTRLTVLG

## M22 IgG (antibody)
[1]
  Cyclic AMP concentration; 3 ng/mL M22 IgG: 21.3 pmol/mL
[2]
  Cyclic AMP concentration at 0.3 ng/mL M22 IgG: 2.36 pmol/mL
  Cyclic AMP concentration at 1 ng/mL M22 IgG: 12 pmol/mL
  Cyclic AMP concentration at 3 ng/mL M22 IgG: 24.6 pmol/mL
  Cyclic AMP concentration at 10 ng/mL M22 IgG: 58.9 pmol/mL
  Cyclic AMP production concentration at 1 ng/mL M22 IgG: 8.1 pmol/mL
  Cyclic AMP production concentration at 3 ng/mL M22 IgG: 24.3 pmol/mL
  Cyclic AMP production concentration at 10 ng/mL M22 IgG: 50.3 pmol/mL
  Cyclic AMP production concentration at 30 ng/mL M22 IgG: 60.9 pmol/mL
  Cyclic AMP production concentration at 100 ng/mL M22 IgG: 64.6 pmol/mL
  Cyclic AMP stimulating activity at 1 ng/mL M22 IgG, units/L (NIBSC 90/672): 0.3 units/L
  Cyclic AMP stimulating activity at 1 ng/mL M22 IgG, units/mg (NIBSC 90/672): 300 units/mg
  Cyclic AMP stimulating activity at 3 ng/mL M22 IgG, units/L (NIBSC 90/672): 0.8 units/L
  Cyclic AMP stimulating activity at 3 ng/mL M22 IgG, units/mg (NIBSC 90/672): 267 units/mg
  Cyclic AMP stimulating activity of M22 IgG, mean units/mg (NIBSC 90/672; mean of 1, 3 and 10 ng/mL): 286 units/mg
[3]
  Mean absorbance at 405 nm (absorbance at 405 nm): 0.726
[4]
  Mean absorbance at 405 nm (absorbance at 405 nm): 0.796
[5]
  Mean absorbance at 405 nm (absorbance at 405 nm): 0.365
[6]
  Mean absorbance at 405 nm (absorbance at 405 nm): 0.657
[7]
  Mean absorbance at 405 nm (absorbance at 405 nm): 0.833
[8]
  Mean absorbance at 405 nm (absorbance at 405 nm): 0.03
[9]
  Mean absorbance at 405 nm (absorbance at 405 nm): 0.872
[10]
  Mean absorbance at 405 nm (absorbance at 405 nm): 0.776
[11]
  Mean absorbance at 405 nm (absorbance at 405 nm): 1.01
[12]
  Mean absorbance at 405 nm (absorbance at 405 nm): 0.484
TSHR260-AP (human) [13]
  Mean absorbance at 405 nm (absorbance at 405 nm): 0.796
TSHR260-AP (human) [14]
  Mean absorbance at 405 nm (absorbance at 405 nm): 0.365
TSHR260-AP (human) [15]
  Mean absorbance at 405 nm (absorbance at 405 nm): 0.657
TSHR260-AP (human) [16]
  Mean absorbance at 405 nm (absorbance at 405 nm): 0.851
TSHR260-AP (human) [17]
  Mean absorbance at 405 nm (absorbance at 405 nm): 0.821
TSHR260-AP (human) [18]
  Mean absorbance at 405 nm (absorbance at 405 nm): 0.045
TSHR260-AP (human) [19]
  Mean absorbance at 405 nm (absorbance at 405 nm): 0.872
TSHR260-AP (human) [20]
  Mean absorbance at 405 nm (absorbance at 405 nm): 1.01
TSHR260-AP (human) [21]
  Mean absorbance at 405 nm (absorbance at 405 nm): 0.075
